Experimental data as given in publication PMC6464389 (Circulation, 2019).

Molecular target: recombinant GPIbα extracellular domain (UniProt P07359 17-531)
Assay: SPR

Kd: 900 nM
B1: recombinant wild-type protein disulfide isomerase (wtPDI) (enzyme)
chain: not shown
